Results published in patent publication US9388213B2, “Polycomb repressive complex 2 (PRC2) inhibitors and uses thereof” (The Rockefeller University, priority 2012, dated 2016).
One block for each substance: values may come before it.

What was measured:
[1] = target: T1, PRC2 (Homo sapiens, UniProt Q15910); assay: in vitro PRC2 histone methyltransferase reactions with H3 peptides added in trans; format: biochemical; conditions: for effect on PRC2 activity relative to the no peptide control: H3 peptides (18-37) in trans, purified wildtype mononucleosomes (FIG. 3A)
T1 construct: Mono Q fractions containing stoichiometric components of PRC2 were pooled; made in house; FLAG-M2 immunoprecipitation from nuclear extract, then Mono Q
Procedure: Human EED protein containing an N-terminal FLAG-epitope was cloned in pCDH-EF1alpha-IRES-Puro (System Biosciences). Resulting lentivirus were used to establish stable 293T and Hela cell lines that express FLAG-hEED. Nuclear extracts were prepared from washed cell pellets as previously described (Lewis et al., “Daxx is an H3.3-specific Histone Chaperone and Cooperates with ATRX in Replication-Independent Chromatin Assembly at Telomeres,” Proc Natl Acad Sci USA 107: 14075-14080 (2010), which is hereby incorporated by reference in its entirety). FLAG-M2 immunoprecipitation of clarified nuclear extract was performed, followed by washing (250 mM KCl) and elution with 3XFLAG peptide (400 ng/μL). Eluate from the FLAG M2 beads was loaded onto a Mono Q ion exchange column. Mono Q fractions containing stoichiometric components of PRC2 were pooled. HEK293T cells expressing epitope-tagged Histone H3 were hypotonically lysed. Washed nuclei were resuspended in micrococcal nuclease digestion buffer (20 mM HEPES, pH 7.9, 30 mM KCl, 2 mM CaCl2, 0.4 mM PMSF, 3× Protease Inhibitor Cocktail (Roche). Micrococcal nuclease (Worthingtons, 15 U/μL) was added to nuclei, followed by incubation at 30° C. for 5-30 minutes. Reactions were returned to ice, followed by addition of 3 mM EDTA, 3 mM EGTA, 120 mM NaCl, 0.1% Triton. Nuclei were dounced (Wheaton A×10), followed by centrifugation 15K rpm in SS34. FLAG M2 beads were incubated with clarified supernatant at 4° C. Washed beads (150 mM KCl) were eluted with 3× FLAG peptide ([…]). DNA from M2 FLAG eluate fractions was resolved by gel electrophoresis for estimation of chromatin lengths. Fractions of similar chromatin (DNA) lengths were pooled and dialyzed (20 mM HEPES, pH 7.9, 10 mM KCl, 10% Glycerol, 0.4 mM PMSF, 0.5 mM DTT). Purified PRC2, peptides, and chromatin substrates were added to reaction buffer (50 mM HEPES, pH 7.9, 0.5 mM DTT, 0.4 mM PMSF). Labeled S-adenosyl-methionine (3H-SAM) was added to reactions (225 μM), followed by incubation at 30° C. The reactions were stopped by binding to P81 filter paper (GE Health) for scintillitation counting, or the addition of SDS-PAGE for autoradiography.

[2] = target: T1, PRC2; assay: kinetic studies of PRC2 methyltransferase assays with varying mononucleosome substrate concentrations; format: biochemical; conditions: initial velocity versus nucleosome substrate concentration
Procedure: Purified PRC2, peptides, and chromatin substrates were added to reaction buffer (50 mM HEPES, pH 7.9, 0.5 mM DTT, 0.4 mM PMSF). Labeled S-adenosyl-methionine (3H-SAM) was added to reactions (225 μM), followed by incubation at 30° C. The reactions were stopped by binding to P81 filter paper (GE Health) for scintillitation counting, or the addition of SDS-PAGE for autoradiography.

T1 sequence (Q15910 whole entry): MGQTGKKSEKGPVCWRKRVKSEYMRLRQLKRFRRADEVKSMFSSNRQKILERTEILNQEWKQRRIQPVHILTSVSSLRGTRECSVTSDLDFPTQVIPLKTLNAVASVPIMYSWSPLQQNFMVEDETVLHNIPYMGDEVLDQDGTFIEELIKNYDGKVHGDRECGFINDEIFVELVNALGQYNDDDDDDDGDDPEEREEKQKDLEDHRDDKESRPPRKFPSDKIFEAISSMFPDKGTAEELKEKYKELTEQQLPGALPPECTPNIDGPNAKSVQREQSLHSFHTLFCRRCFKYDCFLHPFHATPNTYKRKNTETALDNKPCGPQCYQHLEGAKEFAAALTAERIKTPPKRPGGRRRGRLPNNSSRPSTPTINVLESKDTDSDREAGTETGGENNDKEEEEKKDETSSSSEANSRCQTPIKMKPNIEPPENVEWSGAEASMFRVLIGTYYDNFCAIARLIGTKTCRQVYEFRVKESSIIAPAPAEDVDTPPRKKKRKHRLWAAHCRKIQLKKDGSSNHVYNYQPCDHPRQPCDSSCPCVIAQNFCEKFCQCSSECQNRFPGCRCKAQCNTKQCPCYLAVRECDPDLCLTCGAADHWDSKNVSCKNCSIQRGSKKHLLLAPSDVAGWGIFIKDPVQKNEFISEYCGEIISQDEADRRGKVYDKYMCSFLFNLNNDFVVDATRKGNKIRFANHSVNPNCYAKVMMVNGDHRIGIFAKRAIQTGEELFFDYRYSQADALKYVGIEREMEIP
T1 sequence (O75530 whole entry partner): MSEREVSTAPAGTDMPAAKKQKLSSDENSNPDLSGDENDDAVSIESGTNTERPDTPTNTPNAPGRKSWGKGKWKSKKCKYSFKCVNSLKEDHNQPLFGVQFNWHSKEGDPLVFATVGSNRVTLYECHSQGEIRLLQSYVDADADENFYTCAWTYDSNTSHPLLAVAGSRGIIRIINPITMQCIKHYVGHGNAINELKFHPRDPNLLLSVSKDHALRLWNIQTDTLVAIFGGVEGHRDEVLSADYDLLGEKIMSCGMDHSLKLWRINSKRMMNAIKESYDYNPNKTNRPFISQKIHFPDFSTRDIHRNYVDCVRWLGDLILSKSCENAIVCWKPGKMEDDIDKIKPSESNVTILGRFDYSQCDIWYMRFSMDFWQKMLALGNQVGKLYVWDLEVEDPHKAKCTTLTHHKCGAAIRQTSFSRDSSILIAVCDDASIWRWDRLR
T1 sequence (Q15022 whole entry partner): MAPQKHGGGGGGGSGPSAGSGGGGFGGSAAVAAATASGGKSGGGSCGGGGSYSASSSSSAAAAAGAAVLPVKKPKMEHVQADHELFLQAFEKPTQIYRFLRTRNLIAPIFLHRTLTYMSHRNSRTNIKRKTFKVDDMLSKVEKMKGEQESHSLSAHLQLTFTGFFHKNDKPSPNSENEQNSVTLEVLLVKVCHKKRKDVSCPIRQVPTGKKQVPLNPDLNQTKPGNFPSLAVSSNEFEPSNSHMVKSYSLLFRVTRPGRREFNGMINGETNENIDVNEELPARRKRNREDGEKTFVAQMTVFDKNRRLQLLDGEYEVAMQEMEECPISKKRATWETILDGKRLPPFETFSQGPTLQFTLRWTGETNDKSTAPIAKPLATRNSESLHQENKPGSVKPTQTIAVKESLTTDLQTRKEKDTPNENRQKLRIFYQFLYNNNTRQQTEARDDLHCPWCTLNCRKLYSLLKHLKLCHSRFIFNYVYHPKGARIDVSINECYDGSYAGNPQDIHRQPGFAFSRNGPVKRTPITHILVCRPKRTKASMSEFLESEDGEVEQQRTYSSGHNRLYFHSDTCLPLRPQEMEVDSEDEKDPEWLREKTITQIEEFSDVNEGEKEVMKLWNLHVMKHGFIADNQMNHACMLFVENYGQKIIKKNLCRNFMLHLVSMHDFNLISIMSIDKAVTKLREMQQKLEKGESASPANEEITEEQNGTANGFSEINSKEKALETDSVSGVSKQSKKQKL
T1 sequence (Q09028 whole entry partner): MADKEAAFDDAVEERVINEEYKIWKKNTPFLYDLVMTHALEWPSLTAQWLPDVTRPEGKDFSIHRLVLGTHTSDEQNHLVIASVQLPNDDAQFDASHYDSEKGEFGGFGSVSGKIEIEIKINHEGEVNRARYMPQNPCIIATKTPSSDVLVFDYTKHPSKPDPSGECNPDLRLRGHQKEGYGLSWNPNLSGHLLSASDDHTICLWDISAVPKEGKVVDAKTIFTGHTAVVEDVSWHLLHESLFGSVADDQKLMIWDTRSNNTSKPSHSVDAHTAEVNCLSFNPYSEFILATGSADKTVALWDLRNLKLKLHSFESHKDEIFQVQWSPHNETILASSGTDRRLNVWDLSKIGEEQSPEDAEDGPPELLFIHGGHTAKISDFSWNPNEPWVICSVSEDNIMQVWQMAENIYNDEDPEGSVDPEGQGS

- inhibitory effect on PRC2 in vitro ([1]; 50 or 100 μM H3 peptide (18-37), reconstituted nucleosomes (FIGS. 5B and 5C)): no inhibitory effect
Substance: Lys^27 replaced by Leu: H3 peptide (18-37) containing Lys27 replaced by Leu (KQLATKAARLSAPSTGGVKK)

- change in PRC2 activity on titration against K27me3 peptide ([1]; 9:1 ratio of K27ac:K27me3 peptide (FIG. 3D)): no decrease
- effect on PRC2 activity relative to the no peptide control [1]: little stimulation
- effect on PRC2 activity on titration into reactions with constant low concentration of K27me3 peptide ([1]; constant low K27me3 peptide (FIG. 3F)): no decrease
- effect on apparent Vmax [2]: did not decrease
Substance: K27ac: H3 peptide (18-37) acetylated at K27

- effect on PRC2 activity relative to the no peptide control [1]: little stimulation
Substance: unmodified: unmodified H3 peptide (18-37)

- effect on PRC2 activity towards mononucleosome or oligonucleosome templates ([1]; 10 or 100 μM peptide (FIG. 2C)): strongly stimulated
- effect on PRC2 activity relative to the no peptide control [1]: strongly stimulated
Substance: K27me3: H3 peptide trimethylated at K27, allosteric activator of PRC2
